Where “and” joins values, the source holds several entries; their conditions need not be identical. Identical values can stand only once. One block for each substance: values may come before it.
How the values were obtained:
CD147 Pro211 = molecular target: T1, CD147 Pro211 (Homo sapiens, UniProt P35613); assay: ZZ-exchange NMR of CypA-mediated peptidyl-prolyl isomerization of CD147; assay type: biochemical; settings: for kex (s−1), apparent catalytic exchange rate: [CD147^94-214]=0.5 mM
T1 construct: both containing 0.5 mM ^15N-CD147^94-214 at 25° C; made in house
T1 sequence (P35613 94-214 isoform P35613-2): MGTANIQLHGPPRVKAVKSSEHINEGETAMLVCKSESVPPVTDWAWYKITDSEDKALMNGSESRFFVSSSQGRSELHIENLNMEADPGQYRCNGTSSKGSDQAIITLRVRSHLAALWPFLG
Description: For ZZ-exchange experiments, the pulse scheme of Farrow et al. was employed with a selective adiabatic CHIRP pulse applied in the center of the mixing period for water suppression. (69) Two data sets were collected at 720 MHz on two samples with either 0.01 or 0.05 mM CypA and both containing 0.5 mM ^15N-CD147^94-214 at 25° C. and analyzed as previously described to calculate the apparent cis/trans exchange rate (kex). […] Equations (1a), (1b), (1c), and (1d) below were used to simultaneously fit the auto trans peak (Itt), the auto cis peak (Icc), the trans→cis exchange peak (Itc) and the cis→trans exchange peak (Ict), respectively, as a function of τm·Itt(0) and Icc(0) are the initial intensities of the trans and cis auto peaks, respectively, a11=R1t+ktc, a22=R1c+kct, a21=−ktc, and a12=−kct. Finally, under these conditions, ktc and kct can be recast as a function of their free Keq (Pcis/Ptrans=0.33/0.67), and thus, ktc=0.33 kex and kct=0.67 kex.
GraphPad Prism version 4.0 (GraphPad Software Inc., San Diego, Calif.) was used to simultaneously fit all resolvable peaks within CD147 residues 207-214.
ZZ-exchange was used to determine the apparent catalytic exchange rate of CypA-mediated peptidyl-prolyl isomerization of CD147 Pro211, providing a quantitative analysis of the active CypA/CD147 complex (FIG. 49). Specifically, two ZZ-exchange experiments were collected using identical concentrations of 0.5 mM 15N-CD147^94-214 but with two substoichiometric concentrations of the enzyme (i.e., catalytic concentrations) of 0.01 mM (FIG. 49A) and 0.05 mM (FIG. 49B) CypA. Under each condition, the apparent exchange rate (kex), which is the sum of the apparent cis-trans (i.e., kct) and […] (i.e., ktc) catalytic rates, was determined to quantify the rate enhancement of CypA-mediated catalysis (Table 1).

[1] = tested on: Human primary skin keratinocytes (Hka); assay: Cytokine stimulation of Hka, ECL and qRT-PCR readout; assay type: cell-based
Description: Cell stimulation. Primary T-cells, H9 cells and Th22 cells (1×10^6 cells/ml) were stimulated with PMA (1 ng/ml) and lonomycin (500 ng/ml) for 18 hrs at 37° C. HKa were stimulated with TNFα (1 ng/ml), TNFα (10 ng/ml)+PEG sTNF-RI (10 μg/ml), IL-1β (10 ng/ml), IL-1β ng/ml+IL-1ra 10 µg/ml, IL-1β ng /ml+TNFα 10 ng/ml and IL-32α or IL-32β for 24 hrs. Hka were stimulated with activated H9 and primary T-cells for 24 hrs at 37° C. PEGsTNF-RI and IL-1ra was obtained from Amgen (Thousand Oaks, Calif.).
ECL. A polyclonal antibody produced in rabbits against recombinant IL-32γ was used for ECL. IgG was prepared with Econo-Pac and then affinity purified through IL-32-immobilized agarose bead column of Affi-gel 15. An aliquot of the affinity purified anti-IL-32γ antibody was labeled with biotin and another aliquot with ruthenium according to the manufacturer's instructions (BioVeris, Gaithersburg, Md.). […] The liquid-phase ECL method was used to measure TNFα, IL-1β, IL-6, IL-8 and IL-32γ in human primary keratinocytes cell culture media and cell lysates in 0.5% Triton-X. The amount of ECL was determined by using an Origen Analyzer (BioVeris).
Quantitative real-time quantitative polymerase chain reaction (TaqMan) analysis (qRT-PCR). […] The amount of cDNA added to each reaction was held to a relatively narrow range, determined by the measurement of 18S RNA. […]

kct (cis→trans catalytic rate) (CD147 Pro211; CypA:CD147 ratio of 1:10): 40 s⁻¹
ktc (trans→cis catalytic rate) (CD147 Pro211; CypA:CD147 ratio of 1:10): 20 s⁻¹
kex (s−1), apparent catalytic exchange rate (CD147 Pro211; [CypA]=0.01 mM, 25° C.): 9.6 ± 3.5 s⁻¹
kex (s−1), apparent catalytic exchange rate (CD147 Pro211; [CypA]=0.05 mM, 25° C.): 44.3 ± 8.1 s⁻¹
kex extrapolated to the 1:1 / fully bound complex (CD147 Pro211; extrapolated with the peptide Kd, 25° C.): ~6000 s⁻¹ and 4000 to 4800 s⁻¹
kex (=kct+ktc) (CD147 Pro211; substoichiometric CypA concentrations): ~60 s⁻¹
Substance: CypA: recombinant cyclophilin A, peptidyl-prolyl isomerase enzyme ligand of CD147

Substance: IL1ra: recombinant human IL-1 receptor antagonist (Amgen)
reversal of IL1β/TNFα-induced IL32γ gene expression in Hka ([1]; qRT-PCR, FIG. 36): reversed

Substance: rhuIL-1β: recombinant human IL-1β (R&D Systems) used as inflammatory stimulus
induction of cytoplasmic IL-32γ in Hka ([1]; ECL, cell lysates, +48 hours culture): induced highly significant (P<0.001) levels
